The test addresses T1, HAdV-C5 hexon labeled with AlexaFluor594 (human adenovirus C5 (HAdV-C5), UniProt P04133 1-952, AlexaFluor594 label (sites not given)).
T1 chain: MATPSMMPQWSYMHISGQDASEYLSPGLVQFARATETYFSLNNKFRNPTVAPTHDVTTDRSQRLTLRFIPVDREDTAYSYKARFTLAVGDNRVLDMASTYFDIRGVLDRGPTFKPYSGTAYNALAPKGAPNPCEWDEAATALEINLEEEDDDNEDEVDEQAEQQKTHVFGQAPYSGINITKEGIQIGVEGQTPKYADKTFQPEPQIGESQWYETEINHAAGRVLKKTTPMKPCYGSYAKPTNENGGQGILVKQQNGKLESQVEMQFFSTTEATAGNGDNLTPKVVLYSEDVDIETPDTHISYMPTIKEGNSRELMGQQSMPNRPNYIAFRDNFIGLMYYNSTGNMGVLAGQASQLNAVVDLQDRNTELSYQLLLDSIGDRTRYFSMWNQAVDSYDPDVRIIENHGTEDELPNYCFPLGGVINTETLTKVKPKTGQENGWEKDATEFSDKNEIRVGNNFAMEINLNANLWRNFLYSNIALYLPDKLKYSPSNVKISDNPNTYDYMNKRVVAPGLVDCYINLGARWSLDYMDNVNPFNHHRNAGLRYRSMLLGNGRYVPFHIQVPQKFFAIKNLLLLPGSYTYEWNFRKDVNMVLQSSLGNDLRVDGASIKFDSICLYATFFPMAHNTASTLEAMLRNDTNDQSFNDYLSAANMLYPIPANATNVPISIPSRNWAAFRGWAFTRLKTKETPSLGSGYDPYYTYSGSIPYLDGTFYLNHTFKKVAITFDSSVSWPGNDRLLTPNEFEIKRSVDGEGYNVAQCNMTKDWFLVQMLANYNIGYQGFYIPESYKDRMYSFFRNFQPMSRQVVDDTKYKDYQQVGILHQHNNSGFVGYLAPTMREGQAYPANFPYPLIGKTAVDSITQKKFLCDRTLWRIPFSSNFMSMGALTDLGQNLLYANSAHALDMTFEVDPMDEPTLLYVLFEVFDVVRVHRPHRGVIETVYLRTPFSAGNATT
Description: MST.

By Kd is commonly meant the concentration at which binding is half-saturated. Read a high Kd as weaker binding.

Positions count from the first letter of the chain named. Numbers in names are those of the source.

B1: hLF mut2 (R27A) (natural protein)
chain: GRRRSVQWCAVSQPEATKCFQWQRNMAKVRGPPVSCIKRDSPIQCIQAIAENRADAVTLDGGFIYEAGLAPYKLRPVAAEVYGTERQPRTHYYAVAVVKKGGSFQLNELQGLKSCHTGLRRTAGWNVPIGTLRPFLNWTGPPEPIEAAVARFFSASCVPGADKGQFPNLCRLCAGTGENKCAFSSQEPYFSYSGAFKCLRDGAGDVAFIRESTVFEDLSDEAERDEYELLCPDNTRKPVDKFKDCHLARVPSHAVVARSVNGKEDAIWNLLRQAQEKFGKDKSPKFQLFGSPSGQKDLLFKDSAIGFSRVPPRIDSGLYLGSGYFTAIQNLRKSEEEVAARRARVVWCAVGEQELRKCNQWSGLSEGSVTCSSASTTEDCIALVLKGEADAMSLDGGYVYTAGKCGLVPVLAENYKSQQSSDPDPNCVDRPVEGYLAVAVVRRSDTSLTWNSVKGKKSCHTAVDRTAGWNIPMGLLFNQTGSCKFDEYFSQSCAPGSDPRSNLCALCIGDEQGENKCVPNSNERYYGYTGAFRCLAENAGDVAFVKDVTVLQNTDGNNNEAWAKDLKLADFALLCLDGKRKPVTEARSCHLAMAPNHAVVSRMDKVERLKQVLLHQQAKFGRNGSDCPDKFCLFQSETKNLLFNDNTECLARLHGKTTYEKYLGPQYVAGITNLKKCSTSPLLEACEFLRK
In turn, B1 came in with a Kd of 167 nM.

B2: hLF mut6 (K277S/K280A/K285S) (natural protein)
chain: B1 chain with A27R, K277S, K280A, K285S
For B2, the Kd stood at 584 nM.

Values taken from article PMC10949841 (2024).
